{"source": "paper PMC11538695", "about": "(Advanced Science, 2024)", "binders": {"B1": {"name": "C-terminal tail of P97/VCP (residues 765-806) (domain or fragment, human, UniProt P55072 765-806, looked up)", "chain": "SRGFGSFRFPSGNQGGAGPSQGSGGGTGGSVYTEDNDDDLYG", "notes": "P97/VCP, human, C-terminal tail, residues 765-806; also called P97/VCP tail; source: E. coli BL21 (DE3) (said of the recombinant proteins in general), purified"}, "B2": {"name": "full-length human P47 (natural protein, UniProt Q9UNZ2 1-370, looked up)", "chain": "MAAERQEALREFVAVTGAEEDRARFFLESAGWDLQIALASFYEDGGDEDIVTISQATPSSVSRGTAPSDNRVTSFRDLIHDQDEDEEEEEGQRFYAGGSERSGQQIVGPPRKKSPNELVDDLFKGAKEHGAVAVERVTKSPGETSKPRPFAGGGYRLGAAPEEESAYVAGEKRQHSSQDVHVVLKLWKSGFSLDNGELRSYQDPSNAQFLESIRRGEVPAELRRLAHGGQVNLDMEDHRDEDFVKPKGAFKAFTGEGQKLGSTAPQVLSTSSPAQQAENEAKASSSILIDESEPTTNIQIRLADGGRLVQKFNHSHRISDIRLFIVDARPAMAATSFILMTTFPNKELADESQTLKEANLLNAVIVQRLT", "notes": "P47 (adaptor of P97/VCP), human, full length; Cloned into pRSF-32 M or pET-28a; source: E. coli BL21 (DE3), purified (Ni-NTA, size exclusion chromatography)"}, "B3": {"name": "GST-VCPIP1 F1 fragment (IDR1-OTU) (domain or fragment, human, UniProt Q96JH7 1-464, looked up)", "chain": "MSQPPPPPPPLPPPPPPPEAPQTPSSLASAAASGGLLKRRDRRILSGSCPDPKCQARLFFPASGSVSIECTECGQRHEQQQLLGVEEVTDPDVVLHNLLRNALLGVTGAPKKNTELVKVMGLSNYHCKLLSPILARYGMDKQTGRAKLLRDMNQGELFDCALLGDRAFLIEPEHVNTVGYGKDRSGSLLYLHDTLEDIKRANKSQECLIPVHVDGDGHCLVHAVSRALVGRELFWHALRENLKQHFQQHLARYQALFHDFIDAAEWEDIINECDPLFVPPEGVPLGLRNIHIFGLANVLHRPIILLDSLSGMRSSGDYSATFLPGLIPAEKCTGKDGHLNKPICIAWSSSGRNHYIPLVGIKGAALPKLPMNLLPKAWGVPQDLIKKYIKLEEDGGCVIGGDRSLQDKYLLRLVAAMEEVFMDKHGIHPSLVADVHQYFYRRTGVIGVQPEEVTAAAKKAVMDN", "notes": "VCPIP1, human, residues 1-464 (methods); the results print 1-465; pGEX-6P-1 vector; source: E. coli BL21 (DE3), purified (glutathione Sepharose 4B, size exclusion chromatography); not shown: GST, N-terminal, kept"}, "B4": {"name": "GST-VCPIP1 F3 fragment (IDR2-UBL-UFD2) (domain or fragment, human, UniProt Q96JH7 680-1000, looked up)", "chain": "QGQESESQLPTKIILTGQKTKTLHKEELNMSKTERTIQQNITEQASVMQKRKTEKLKQEQKGQPRTVSPSTIRDGPSSAPATPTKAPYSPTTSKEKKIRITTNDGRQSMVTLKSSTTFFELQESIAREFNIPPYLQCIRYGFPPKELMPPQAGMEKEPVPLQHGDRITIEILKSKAEGGQSAAAHSAHTVKQEDIAVTGKLSSKELQEQAEKEMYSLCLLATLMGEDVWSYAKGLPHMFQQGGVFYSIMKKTMGMADGKHCTFPHLPGKTFVYNASEDRLELCVDAAGHFPIGPDVEDLVKEAVSQVRAEATTRSRESSPS", "notes": "VCPIP1, human, residues 680-1000; pGEX-6P-1 vector; source: E. coli BL21 (DE3), purified (glutathione Sepharose 4B, size exclusion chromatography); not shown: GST, N-terminal, kept"}}, "settings_in_all_cases": "both partners purified", "key": {"[1]": {"target": "T1, N-terminal region of VCPIP1 (residues 40-464) (human, UniProt Q96JH7 40-464)", "T1 construct": "VCPIP1, human, N-terminal region with the OTU domain, residues 40-464; also called N-terminal OTU domain (residues 40-464); source: E. coli BL21 (DE3) (said of the recombinant proteins in general), purified", "T1 sequence (looked up)": "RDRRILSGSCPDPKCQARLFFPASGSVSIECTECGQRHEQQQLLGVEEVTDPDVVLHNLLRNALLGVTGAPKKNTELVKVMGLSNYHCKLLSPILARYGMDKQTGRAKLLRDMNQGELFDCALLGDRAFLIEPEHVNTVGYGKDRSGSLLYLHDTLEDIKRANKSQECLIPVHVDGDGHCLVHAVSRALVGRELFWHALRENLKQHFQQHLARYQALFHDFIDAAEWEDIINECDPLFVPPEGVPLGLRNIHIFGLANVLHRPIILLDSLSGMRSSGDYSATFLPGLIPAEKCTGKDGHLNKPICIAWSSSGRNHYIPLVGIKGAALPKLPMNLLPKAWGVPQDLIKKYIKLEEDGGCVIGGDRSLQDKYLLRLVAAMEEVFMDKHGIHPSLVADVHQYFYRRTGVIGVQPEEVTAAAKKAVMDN", "experiment": "SEC; gel filtration co-migration of purified fragments, fractions on SDS-PAGE with Coomassie staining"}, "[2]": {"target": "T2, full-length human P97/VCP (Valosin-Containing Protein) (human, UniProt P55072 1-806)", "T2 construct": "P97/VCP (valosin-containing protein), human, full length; Cloned into pRSF-32 M (N-terminal thioredoxin and 6xHis) or pET-28a; source: E. coli BL21 (DE3), purified (Ni-NTA, size exclusion chromatography)", "experiment": "pull-down; MBP pull-down, SNARE complex held by MBP-syntaxin5; P97/VCP-P47 without or with VCPIP1 WT or Y623E/F638E added (VCPIP1 WT enhanced, the double mutant did not)"}, "[3]": {"target": "T3, Syntaxin5 (STX5) contained SNARE complex (syntaxin-5, GOSR1, Ykt6, Bet1, without transmembrane domains) (human, UniProt Q13190 55-330; O95249 150-230; O15498 1-193; O15155 1-93)", "T3 construct": "syntaxin-5, human, residues 55-330; GosR1, human, residues 150-230; Ykt6, human, residues 1-193; Bet1, human, residues 1-93; also called intact SNARE complex; SNARE substrate; source: E. coli BL21 (DE3), pellets mixed and lysed together, purified (amylose resin, size exclusion chromatography); not shown: MBP, N-terminal, kept; copies: + + +", "T3 sequence (looked up) 1": "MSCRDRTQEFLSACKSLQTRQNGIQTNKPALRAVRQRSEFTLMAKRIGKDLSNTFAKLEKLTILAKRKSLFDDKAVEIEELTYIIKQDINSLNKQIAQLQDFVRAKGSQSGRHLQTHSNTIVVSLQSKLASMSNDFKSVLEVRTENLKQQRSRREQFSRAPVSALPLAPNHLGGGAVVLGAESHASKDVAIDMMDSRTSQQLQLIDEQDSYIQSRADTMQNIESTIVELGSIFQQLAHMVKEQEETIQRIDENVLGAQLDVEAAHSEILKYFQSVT", "T3 sequence (looked up) 2": "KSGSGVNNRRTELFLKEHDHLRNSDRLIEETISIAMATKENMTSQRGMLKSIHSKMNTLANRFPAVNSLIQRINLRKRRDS", "T3 sequence (looked up) 3": "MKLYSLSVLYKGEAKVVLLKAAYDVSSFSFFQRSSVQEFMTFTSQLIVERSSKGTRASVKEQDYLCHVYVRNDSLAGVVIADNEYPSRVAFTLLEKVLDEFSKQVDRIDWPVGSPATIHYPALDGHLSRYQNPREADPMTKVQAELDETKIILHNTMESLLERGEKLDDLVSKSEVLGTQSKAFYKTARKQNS", "T3 sequence (looked up) 4": "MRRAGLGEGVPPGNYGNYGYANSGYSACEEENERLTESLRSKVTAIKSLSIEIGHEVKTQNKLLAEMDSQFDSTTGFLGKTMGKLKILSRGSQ", "experiment": "pull-down; MBP pull-down, SNARE complex held by MBP-syntaxin5; P97/VCP-P47 without or with VCPIP1 WT or Y623E/F638E added (VCPIP1 WT enhanced, the double mutant did not)"}, "[4]": {"target": "T2, full-length human P97/VCP …", "experiment": "pull-down; 50 µg GST-tagged VCPIP1 protein held on glutathione Sepharose 4B, full-length P97/VCP at molar ratio 1:3; 20 mM Tris pH 7.5, 100 mM NaCl, 1 mM DTT; Coomassie staining"}}, "data": [{"binder": "B1", "values": [{"measurement": "binding result", "setting": "[1]", "value": "binds"}]}, {"binder": "B2", "values": [{"measurement": "binding result", "setting": "[2]", "value": "binds"}, {"measurement": "binding result", "setting": "[3]", "value": "binds"}]}, {"binder": "B3", "values": [{"measurement": "binding result", "setting": "[4]", "value": "binds"}]}, {"binder": "B4", "values": [{"measurement": "binding result", "setting": "[4]", "value": "binds"}]}]}
